The record followed here is article PMC6615629, “Hsp70-nucleotide exchange factor (NEF) Fes1 has non-NEF roles in degradation of gluconeogenic enzymes and cell wall integrity” (PLoS Genetics, 2019).

Common to all, as to conditions: both partners purified
In one assay the target is T1, His6-Fbp1 (yeast (S. cerevisiae), UniProt P09201 1-348).
T1 construct: Fbp1, yeast gluconeogenic enzyme; the initiator methionine is present in the purified protein and is counted as residue 1; also called wild type His6-Fbp1; not shown: His6, N-terminal, kept
T1 sequence (looked up): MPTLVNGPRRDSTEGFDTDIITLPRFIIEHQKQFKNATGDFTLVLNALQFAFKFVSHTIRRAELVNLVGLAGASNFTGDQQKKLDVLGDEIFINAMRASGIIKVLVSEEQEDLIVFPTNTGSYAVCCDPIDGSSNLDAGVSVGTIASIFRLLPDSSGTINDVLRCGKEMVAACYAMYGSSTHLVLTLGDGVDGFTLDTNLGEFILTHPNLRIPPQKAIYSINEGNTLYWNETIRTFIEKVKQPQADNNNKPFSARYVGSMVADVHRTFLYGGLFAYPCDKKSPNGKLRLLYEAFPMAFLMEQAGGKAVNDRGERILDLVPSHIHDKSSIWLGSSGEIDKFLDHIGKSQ
Kind of assay: pull-down; His6-Fbp1 (wild type or mutant) pulled down on Talon metal affinity resin; reactions with two or all three proteins; 6 μg each of His6-Fbp1 (1.6 μM), Hsp70 (0.9 μM) and GST-Fes1 (1.09 μM), with or without ATP, ADP or AMP (2.5 mM); 50 mM Tris-HCl pH 7.5, 150 mM NaCl, 2% glycerol, 5 mM MgCl2; 30 min at 4°C; washed with 5 mM imidazole, eluted with 250 mM imidazole; stained SDS-PAGE gels, bands quantified ….

The target of the next assay is T2, Ssa2 (yeast (S. cerevisiae), UniProt P10592 1-639).
T2 construct: Ssa2, yeast cytosolic Hsp70; non-tagged; also called Hsp70; source: E. coli Rosetta 2(DE3), purified as described [51]
T2 sequence (P10592 whole entry): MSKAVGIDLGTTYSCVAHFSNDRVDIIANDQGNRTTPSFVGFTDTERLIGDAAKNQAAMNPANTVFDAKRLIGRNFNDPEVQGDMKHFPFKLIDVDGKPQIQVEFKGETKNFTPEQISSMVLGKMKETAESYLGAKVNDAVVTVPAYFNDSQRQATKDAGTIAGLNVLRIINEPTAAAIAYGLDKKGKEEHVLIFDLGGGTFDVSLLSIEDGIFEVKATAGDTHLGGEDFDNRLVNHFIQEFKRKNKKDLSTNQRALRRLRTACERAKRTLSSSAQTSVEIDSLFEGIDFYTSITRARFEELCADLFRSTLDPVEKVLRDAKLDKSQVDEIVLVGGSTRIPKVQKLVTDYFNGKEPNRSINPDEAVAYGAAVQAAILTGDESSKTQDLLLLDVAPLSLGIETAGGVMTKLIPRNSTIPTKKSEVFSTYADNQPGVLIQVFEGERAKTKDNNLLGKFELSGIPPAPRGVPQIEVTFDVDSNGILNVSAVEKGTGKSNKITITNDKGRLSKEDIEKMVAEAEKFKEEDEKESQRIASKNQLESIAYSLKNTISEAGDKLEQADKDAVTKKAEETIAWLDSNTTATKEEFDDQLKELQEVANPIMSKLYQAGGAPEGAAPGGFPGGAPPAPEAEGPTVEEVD
The assay can be described thus: pull-down; GST-Fes1 (wild type or mutant, or GST alone) pulled down on glutathione resin; reactions with two or all three proteins; 6 μg each of His6-Fbp1 (1.6 μM), Hsp70 (0.9 μM) and GST-Fes1 (1.09 μM), with or without ATP, ADP or AMP (2.5 mM); 50 mM Tris-HCl pH 7.5, 150 mM NaCl, 2% glycerol, 5 mM MgCl2; 30 min at 4°C; stained SDS-PAGE gels.

Another assay addresses T3, Ssa1 (yeast (S. cerevisiae), UniProt P10591 1-642).
T3 construct: Ssa1, yeast cytosolic Hsp70; non-tagged; also called Hsp70; source: E. coli Rosetta 2(DE3), purified as described [51]
The assay is described as above.

The next assay addresses T4, His6-Fbp1 P2A (yeast (S. cerevisiae), UniProt P09201 1-348, P2A).
T4 construct: Fbp1, yeast gluconeogenic enzyme, P2A; the initiator methionine is counted as residue 1; source: E. coli expression, purified; not shown: His6, N-terminal, kept
T4 sequence (looked up): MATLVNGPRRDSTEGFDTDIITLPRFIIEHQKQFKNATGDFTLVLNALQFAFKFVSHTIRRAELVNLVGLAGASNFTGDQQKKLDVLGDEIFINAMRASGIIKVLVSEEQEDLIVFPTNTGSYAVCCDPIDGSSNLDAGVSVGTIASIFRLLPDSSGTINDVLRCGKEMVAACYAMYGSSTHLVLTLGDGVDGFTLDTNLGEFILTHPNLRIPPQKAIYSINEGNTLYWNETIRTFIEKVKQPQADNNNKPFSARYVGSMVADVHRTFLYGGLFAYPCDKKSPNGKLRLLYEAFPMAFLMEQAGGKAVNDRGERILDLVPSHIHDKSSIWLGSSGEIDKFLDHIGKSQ
Kind of assay: pull-down; His6-Fbp1 (wild type or mutant) pulled down on Talon metal affinity resin; reactions with two or all three proteins; 6 μg each of His6-Fbp1 (1.6 μM), Hsp70 (0.9 μM) and GST-Fes1 (1.09 μM), with or without ATP, ADP or AMP (2.5 mM); 50 mM Tris-HCl pH 7.5, 150 mM NaCl, 2% glycerol, 5 mM MgCl2; 30 min at 4°C; washed with 5 mM imidazole, eluted with 250 mM imidazole; stained SDS-PAGE gels, bands quantified ….

A further assay deals with T5, His6-Fbp1Δ2–12 (yeast (S. cerevisiae), UniProt P09201 1-348, Δ2–12).
T5 construct: Fbp1, yeast gluconeogenic enzyme, lacking amino acid residues 2–12; the initiator methionine is counted as residue 1; source: E. coli expression, purified; not shown: His6, N-terminal, kept
T5 sequence (looked up): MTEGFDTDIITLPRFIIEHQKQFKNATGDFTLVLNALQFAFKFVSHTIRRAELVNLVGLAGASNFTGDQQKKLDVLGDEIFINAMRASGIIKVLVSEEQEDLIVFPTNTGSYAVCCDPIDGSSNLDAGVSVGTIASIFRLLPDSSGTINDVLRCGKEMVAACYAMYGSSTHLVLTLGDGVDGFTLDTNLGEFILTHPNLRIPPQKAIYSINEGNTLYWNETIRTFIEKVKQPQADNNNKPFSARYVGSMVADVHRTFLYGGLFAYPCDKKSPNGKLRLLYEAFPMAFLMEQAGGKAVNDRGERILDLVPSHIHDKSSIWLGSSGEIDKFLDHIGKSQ
Described as above.

T3 sequence (P10591 whole entry): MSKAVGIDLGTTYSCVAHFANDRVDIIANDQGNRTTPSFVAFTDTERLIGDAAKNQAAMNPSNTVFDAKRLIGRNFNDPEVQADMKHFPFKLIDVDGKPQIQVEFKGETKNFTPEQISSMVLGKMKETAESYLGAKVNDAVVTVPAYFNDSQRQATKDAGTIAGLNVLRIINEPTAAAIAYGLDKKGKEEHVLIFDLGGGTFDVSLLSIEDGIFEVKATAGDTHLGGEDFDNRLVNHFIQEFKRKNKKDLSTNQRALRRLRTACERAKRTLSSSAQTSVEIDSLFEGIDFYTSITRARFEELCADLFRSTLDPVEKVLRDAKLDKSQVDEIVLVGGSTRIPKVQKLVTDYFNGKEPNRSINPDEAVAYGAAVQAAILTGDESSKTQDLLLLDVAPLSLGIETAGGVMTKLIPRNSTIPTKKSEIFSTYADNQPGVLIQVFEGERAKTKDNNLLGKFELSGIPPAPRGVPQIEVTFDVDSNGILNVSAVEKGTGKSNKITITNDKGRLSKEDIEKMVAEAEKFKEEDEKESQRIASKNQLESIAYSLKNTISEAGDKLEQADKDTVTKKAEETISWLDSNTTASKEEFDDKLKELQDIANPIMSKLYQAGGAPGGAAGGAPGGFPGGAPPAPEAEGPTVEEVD

B1: GST-Fes1 (natural protein, yeast (S. cerevisiae), UniProt P38260 1-290, looked up)
chain: MEKLLQWSIANSQGDKEAMARAGQPDPKLLQQLFGGGGPDDPTLMKESMAVIMNPEVDLETKLVAFDNFEMLIENLDNANNIENLKLWEPLLDVLVQTKDEELRAAALSIIGTAVQNNLDSQNNFMKYDNGLRSLIEIASDKTKPLDVRTKAFYALSNLIRNHKDISEKFFKLNGLDCIAPVLSDNTAKPKLKMRAIALLTAYLSSVKIDENIISVLRKDGVIESTIECLSDESNLNIIDRVLSFLSHLISSGIKFNEQELHKLNEGYKHIEPLKDRLNEDDYLAVKYVL
notes: Fes1, yeast Hsp70 nucleotide exchange factor; also called wild type GST-Fes1; source: E. coli expression, purified as described [15]; not shown: GST, N-terminal, kept
B1: in the assay with His6-Fbp1, the “ratio of amounts Fes1/Ssa1 pulled down by Fbp1, no nucleotide” value was 0.23; the “ratio of amounts Fes1/Ssa1 pulled down by Fbp1, with ADP” value is 0.5; the “ratio of amounts Fes1/Ssa1 pulled down by Fbp1, with AMP” value came to 0.18; the “ratio of amounts Fes1/Ssa1 pulled down by Fbp1, with ATP” value came out at 0.58. Further, in the assay with His6-Fbp1, the “ratio of amounts Fes1/Ssa2 pulled down by Fbp1, no nucleotide” value came to 0.33; the “ratio of amounts Fes1/Ssa2 pulled down by Fbp1, with ADP” value was 0.67; the “ratio of amounts Fes1/Ssa2 pulled down by Fbp1, with AMP” value amounted to 0.32; the “ratio of amounts Fes1/Ssa2 pulled down by Fbp1, with ATP” value came out at 0.79. For the same molecule, the binding result with Ssa2 is on record as “binds”. Besides, the binding result in the assay with Ssa1 was “binds”. Further, the binding result in the assay with His6-Fbp1 P2A is on record as “binds”. In the assay with His6-Fbp1Δ2–12, the binding result was “binds”.
